Results published in patent US20120172293A1 (Takeda / Millennium, published 2012).
Starred links: 1 amine or outer side, 2 acyl side, 3 side chain; linkers in the order of their positions; H or OH if unused. Non-standard residues stand in square brackets, D forms with d. *: point of attachment. 2‑hydroxyethylcarbamoyl = O=C(NCCO)*; tBuAla = CC(C)(C)C[C@H](N)C(=O)O; Cha = N[C@@H](CC1CCCCC1)C(=O)O; Suc = O=C(CCC(=O)[*:2])[*:1]; Aib = CC(C)(N)C(=O)O

T1: human Y2 receptor (human, UniProt P49146 1-381)
T1 sequence (looked up): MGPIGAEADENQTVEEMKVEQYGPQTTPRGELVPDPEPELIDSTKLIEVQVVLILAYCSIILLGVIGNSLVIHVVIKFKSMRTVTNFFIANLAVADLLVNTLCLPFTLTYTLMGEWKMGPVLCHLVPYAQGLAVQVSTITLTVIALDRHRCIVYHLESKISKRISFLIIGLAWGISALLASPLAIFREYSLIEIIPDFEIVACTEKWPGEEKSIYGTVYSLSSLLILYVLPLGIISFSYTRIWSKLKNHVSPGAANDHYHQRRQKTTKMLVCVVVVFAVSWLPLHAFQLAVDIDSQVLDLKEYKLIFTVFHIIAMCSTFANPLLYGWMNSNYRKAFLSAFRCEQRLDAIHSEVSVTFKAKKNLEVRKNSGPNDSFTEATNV


Columns and labels:
human Y2 receptor [1] = target: T1, human Y2 receptor; assay: cell-based or functional assay
human Y2 receptor [2] = target: T1, human Y2 receptor; assay: RBA: [125I]-PYY displacement, hY2R/CHO membranes
Method: After incubation at room temperature for 60 minutes, the mixture was filtered through the cell harvester FilterMate (PerkinElmer) using UniFilter-96 GF/C treated with polyethylenimine (PEI) solution (20 mM Tris, 0.3% PEI, pH 7.4), and the filter was washed 3 times with a filtering buffer (50 mM Tris, 5 mM MgCl₂, 150 mM NaCl, 0.03% NaN₃, 0.05% CHAPS, pH 7.4). Thereafter, UniFilter-96 GF/C was dried in a mechanical drier for 1 hour, 15 μl of the liquid scintillator MicroScint O (PerkinElmer) was added to each well, and a measurement was taken using TopCount (PerkinElmer). The data obtained were analyzed using Prism to calculate the IC₅₀ value.

| GBA EC50 Ratio (vs PYY(3-36)), [35S]GTPγS (human Y2 receptor [1]) | IC50 Ratio (vs PYY(3-36)) (human Y2 receptor [2]) | Binder |
| --- | --- | --- |
| 0.71 ratio | 0.6 ratio | {2‑hydroxyethylcarbamoyl}-S[dP]RH[Cha][tBuAla]NK[Aib]TRQR[Cha]-NH2 (SMILES C[C@@H](O)[C@H](NC(=O)C(C)(C)NC(=O)[C@H](CCCCN)NC(=O)[C@H](CC(N)=O)NC(=O)[C@H](CC(C)(C)C)NC(=O)[C@H](CC1CCCCC1)NC(=O)[C@H](Cc1c[nH]cn1)NC(=O)[C@H](CCCNC(=N)N)NC(=O)[C@H]1CCCN1C(=O)[C@H](CO)NC(=O)NCCO)C(=O)N[C@@H](CCCNC(=N)N)C(=O)N[C@@H](CCC(N)=O)C(=O)N[C@@H](CCCNC(=N)N)C(=O)N[C@@H](CC1CCCCC1)C(N)=O, also called compound No. 188) [2-Hydroxyethylcarbamoyl-[D-Pro24, Cha27,36, Leu(Me)28, Lys30, Aib31]-PYY(23-36)] |
| 1.6 ratio | 2.9 ratio | Ac-E[dP]RH[Cha][Aib]NK[Aib]TRQR[Cha]-NH2 (SMILES CC(=O)N[C@@H](CCC(=O)O)C(=O)N1CCC[C@@H]1C(=O)N[C@@H](CCCNC(=N)N)C(=O)N[C@@H](Cc1c[nH]cn1)C(=O)N[C@@H](CC1CCCCC1)C(=O)NC(C)(C)C(=O)N[C@@H](CC(N)=O)C(=O)N[C@@H](CCCCN)C(=O)NC(C)(C)C(=O)N[C@H](C(=O)N[C@@H](CCCNC(=N)N)C(=O)N[C@@H](CCC(N)=O)C(=O)N[C@@H](CCCNC(=N)N)C(=O)N[C@@H](CC1CCCCC1)C(N)=O)[C@@H](C)O, also called compound No. 171) [Ac-[Glu23, D-Pro24, Cha27,36, Aib28,31, Lys30]-PYY(23-36)] |
| 2.6 ratio | 7.1 ratio | Ac-[dT][dP]RH[Cha][Cha]NL[Aib]TRQR[Cha]-NH2 (SMILES CC(=O)N[C@@H](C(=O)N1CCC[C@@H]1C(=O)N[C@@H](CCCNC(=N)N)C(=O)N[C@@H](Cc1c[nH]cn1)C(=O)N[C@@H](CC1CCCCC1)C(=O)N[C@@H](CC1CCCCC1)C(=O)N[C@@H](CC(N)=O)C(=O)N[C@@H](CC(C)C)C(=O)NC(C)(C)C(=O)N[C@H](C(=O)N[C@@H](CCCNC(=N)N)C(=O)N[C@@H](CCC(N)=O)C(=O)N[C@@H](CCCNC(=N)N)C(=O)N[C@@H](CC1CCCCC1)C(N)=O)[C@@H](C)O)[C@H](C)O, also called compound No. 158) [Ac-[D-Thr23, D-Pro24, Cha27,28,36, Aib31]-PYY(23-36)] |
| 9.5 ratio | 68 ratio | Ac-S[dP]RE[Cha][Cha]NL[Aib]TRQR[Cha]-NH2 (SMILES CC(=O)N[C@@H](CO)C(=O)N1CCC[C@@H]1C(=O)N[C@@H](CCCNC(=N)N)C(=O)N[C@@H](CCC(=O)O)C(=O)N[C@@H](CC1CCCCC1)C(=O)N[C@@H](CC1CCCCC1)C(=O)N[C@@H](CC(N)=O)C(=O)N[C@@H](CC(C)C)C(=O)NC(C)(C)C(=O)N[C@H](C(=O)N[C@@H](CCCNC(=N)N)C(=O)N[C@@H](CCC(N)=O)C(=O)N[C@@H](CCCNC(=N)N)C(=O)N[C@@H](CC1CCCCC1)C(N)=O)[C@@H](C)O, also called compound No. 151) [Ac-[D-Pro24, Glu26, Cha27,28,36, Aib31]-PYY(23-36)] |
| 3.1 ratio | 6.1 ratio | Ac-S[dP]RH[Cha][Cha]NT[Aib]TRQR[Cha]-NH2 (SMILES CC(=O)N[C@@H](CO)C(=O)N1CCC[C@@H]1C(=O)N[C@@H](CCCNC(=N)N)C(=O)N[C@@H](Cc1c[nH]cn1)C(=O)N[C@@H](CC1CCCCC1)C(=O)N[C@@H](CC1CCCCC1)C(=O)N[C@@H](CC(N)=O)C(=O)N[C@H](C(=O)NC(C)(C)C(=O)N[C@H](C(=O)N[C@@H](CCCNC(=N)N)C(=O)N[C@@H](CCC(N)=O)C(=O)N[C@@H](CCCNC(=N)N)C(=O)N[C@@H](CC1CCCCC1)C(N)=O)[C@@H](C)O)[C@@H](C)O, also called compound No. 132) [Ac-[D-Pro24, Cha27,28,36, Thr30, Aib31]-PYY(23-36)] |
| 0.84 ratio | 1.9 ratio | Ac-S[dP]RH[Cha][Aib]NK[Aib]TRQR[Cha]-NH2 (SMILES CC(=O)N[C@@H](CO)C(=O)N1CCC[C@@H]1C(=O)N[C@@H](CCCNC(=N)N)C(=O)N[C@@H](Cc1c[nH]cn1)C(=O)N[C@@H](CC1CCCCC1)C(=O)NC(C)(C)C(=O)N[C@@H](CC(N)=O)C(=O)N[C@@H](CCCCN)C(=O)NC(C)(C)C(=O)N[C@H](C(=O)N[C@@H](CCCNC(=N)N)C(=O)N[C@@H](CCC(N)=O)C(=O)N[C@@H](CCCNC(=N)N)C(=O)N[C@@H](CC1CCCCC1)C(N)=O)[C@@H](C)O, also called compound No. 135) [Ac-[D-Pro24, Cha27,36, Aib28, Lys30, Aib31]-PYY(23-36)] |
| 1.2 ratio | 1.3 ratio | {2‑hydroxyethylcarbamoyl}-E[dP]RH[Cha][Cha]NK[Aib]TRQR[Cha]-NH2 (SMILES C[C@@H](O)[C@H](NC(=O)C(C)(C)NC(=O)[C@H](CCCCN)NC(=O)[C@H](CC(N)=O)NC(=O)[C@H](CC1CCCCC1)NC(=O)[C@H](CC1CCCCC1)NC(=O)[C@H](Cc1c[nH]cn1)NC(=O)[C@H](CCCNC(=N)N)NC(=O)[C@H]1CCCN1C(=O)[C@H](CCC(=O)O)NC(=O)NCCO)C(=O)N[C@@H](CCCNC(=N)N)C(=O)N[C@@H](CCC(N)=O)C(=O)N[C@@H](CCCNC(=N)N)C(=O)N[C@@H](CC1CCCCC1)C(N)=O, also called compound No. 192) [2-Hydroxyethylcarbamoyl-[Glu23, D-Pro24, Cha27,28,36, Lys30, Aib31]-PYY(23-36)] |
| 1.7 ratio | 2.4 ratio | Ac-N[dP]RH[Cha][Cha]NL[Aib]TRQR[Cha]-NH2 (SMILES CC(=O)N[C@@H](CC(N)=O)C(=O)N1CCC[C@@H]1C(=O)N[C@@H](CCCNC(=N)N)C(=O)N[C@@H](Cc1c[nH]cn1)C(=O)N[C@@H](CC1CCCCC1)C(=O)N[C@@H](CC1CCCCC1)C(=O)N[C@@H](CC(N)=O)C(=O)N[C@@H](CC(C)C)C(=O)NC(C)(C)C(=O)N[C@H](C(=O)N[C@@H](CCCNC(=N)N)C(=O)N[C@@H](CCC(N)=O)C(=O)N[C@@H](CCCNC(=N)N)C(=O)N[C@@H](CC1CCCCC1)C(N)=O)[C@@H](C)O, also called compound No. 115) [Ac-[Asn23, D-Pro24, Cha27,28,36, Aib31]-PYY(23-36)] |
| 1.1 ratio | 0.73 ratio | Ac-E[dP]RH[Cha][tBuAla]NK[Aib]TRQR[Cha]-NH2 (SMILES CC(=O)N[C@@H](CCC(=O)O)C(=O)N1CCC[C@@H]1C(=O)N[C@@H](CCCNC(=N)N)C(=O)N[C@@H](Cc1c[nH]cn1)C(=O)N[C@@H](CC1CCCCC1)C(=O)N[C@@H](CC(C)(C)C)C(=O)N[C@@H](CC(N)=O)C(=O)N[C@@H](CCCCN)C(=O)NC(C)(C)C(=O)N[C@H](C(=O)N[C@@H](CCCNC(=N)N)C(=O)N[C@@H](CCC(N)=O)C(=O)N[C@@H](CCCNC(=N)N)C(=O)N[C@@H](CC1CCCCC1)C(N)=O)[C@@H](C)O, also called compound No. 168) [Ac-[Glu23, D-Pro24, Cha27,36, Leu(Me)28, Lys30, Aib31]-PYY(23-36)] |
| 1.1 ratio | 0.64 ratio | Suc-S[dP]RH[Cha][Cha]NK[Aib]TRQR[Cha]-NH2 (SMILES C[C@@H](O)[C@H](NC(=O)C(C)(C)NC(=O)[C@H](CCCCN)NC(=O)[C@H](CC(N)=O)NC(=O)[C@H](CC1CCCCC1)NC(=O)[C@H](CC1CCCCC1)NC(=O)[C@H](Cc1c[nH]cn1)NC(=O)[C@H](CCCNC(=N)N)NC(=O)[C@H]1CCCN1C(=O)[C@H](CO)NC(=O)CCC(=O)O)C(=O)N[C@@H](CCCNC(=N)N)C(=O)N[C@@H](CCC(N)=O)C(=O)N[C@@H](CCCNC(=N)N)C(=O)N[C@@H](CC1CCCCC1)C(N)=O, also called compound No. 167) [3-Carboxypropionyl-[D-Pro24, Cha27,28,36, Lys30, Aib31]-PYY(23-36)] |
| 0.63 ratio | 0.57 ratio | Ac-S[dP]RH[Cha][tBuAla]NK[Aib]TRQR[Cha]-NH2 (SMILES CC(=O)N[C@@H](CO)C(=O)N1CCC[C@@H]1C(=O)N[C@@H](CCCNC(=N)N)C(=O)N[C@@H](Cc1c[nH]cn1)C(=O)N[C@@H](CC1CCCCC1)C(=O)N[C@@H](CC(C)(C)C)C(=O)N[C@@H](CC(N)=O)C(=O)N[C@@H](CCCCN)C(=O)NC(C)(C)C(=O)N[C@H](C(=O)N[C@@H](CCCNC(=N)N)C(=O)N[C@@H](CCC(N)=O)C(=O)N[C@@H](CCCNC(=N)N)C(=O)N[C@@H](CC1CCCCC1)C(N)=O)[C@@H](C)O, also called compound No. 136) [Ac-[D-Pro24, Cha27,36, Leu(Me)28, Lys30, Aib31]-PYY(23-36)] |
| 1.8 ratio | 3.6 ratio | Ac-E[dP]RH[Cha][Cha]NK[Aib]TRQR[Cha]-NH2 (SMILES CC(=O)N[C@@H](CCC(=O)O)C(=O)N1CCC[C@@H]1C(=O)N[C@@H](CCCNC(=N)N)C(=O)N[C@@H](Cc1c[nH]cn1)C(=O)N[C@@H](CC1CCCCC1)C(=O)N[C@@H](CC1CCCCC1)C(=O)N[C@@H](CC(N)=O)C(=O)N[C@@H](CCCCN)C(=O)NC(C)(C)C(=O)N[C@H](C(=O)N[C@@H](CCCNC(=N)N)C(=O)N[C@@H](CCC(N)=O)C(=O)N[C@@H](CCCNC(=N)N)C(=O)N[C@@H](CC1CCCCC1)C(N)=O)[C@@H](C)O, also called compound No. 137) [Ac-[Glu23, D-Pro24, Cha27,28,36, Lys30, Aib31]-PYY(23-36)] |
| 2.1 ratio | 9.3 ratio | Ac-S[dP]RT[Cha][Cha]NL[Aib]TRQR[Cha]-NH2 (SMILES CC(=O)N[C@@H](CO)C(=O)N1CCC[C@@H]1C(=O)N[C@@H](CCCNC(=N)N)C(=O)N[C@H](C(=O)N[C@@H](CC1CCCCC1)C(=O)N[C@@H](CC1CCCCC1)C(=O)N[C@@H](CC(N)=O)C(=O)N[C@@H](CC(C)C)C(=O)NC(C)(C)C(=O)N[C@H](C(=O)N[C@@H](CCCNC(=N)N)C(=O)N[C@@H](CCC(N)=O)C(=O)N[C@@H](CCCNC(=N)N)C(=O)N[C@@H](CC1CCCCC1)C(N)=O)[C@@H](C)O)[C@@H](C)O, also called compound No. 147) [Ac-[D-Pro24, Thr26, Cha27,28,36, Aib31]-PYY(23-36)] |
